According to the supplement of paper PMC11246515:
± gives the standard deviation of the averaged measurements.

Test: total protein half-life in vivo (active degradation + dilution); higher = more stable protein
[1] = E. coli NCM3722 delta-clpP delta-lon delta-hslV, growth: N-lim chemostat, doubling time 6 h
[2] = E. coli NCM3722 delta-clpP, growth: N-lim chemostat, doubling time 6 h
[3] = E. coli NCM3722 delta-hslV, growth: N-lim chemostat, doubling time 6 h
[4] = E. coli NCM3722 delta-lon, growth: N-lim chemostat, doubling time 6 h
[5] = E. coli NCM3722 delta-smpB, growth: N-lim chemostat, doubling time 6 h
[6] = wild type E. coli NCM3722, growth: C-lim chemostat, doubling time 3 h
[7] = wild type E. coli NCM3722, growth: C-lim chemostat, doubling time 6 h
[8] = wild type E. coli NCM3722, growth: C-lim chemostat, doubling time 12 h
[9] = wild type E. coli NCM3722, growth: N-lim chemostat, doubling time 6 h
[10] = wild type E. coli NCM3722, growth: N-lim chemostat, doubling time 12 h
[11] = wild type E. coli NCM3722, growth: P-lim chemostat, doubling time 6 h
[12] = wild type E. coli NCM3722, growth: P-lim chemostat, doubling time 12 h

## MANADLDKQPDSVSSVLKVFGILQALGEEREIGITELSQRVMMSKSTVYRFLQTMKTLGYVAQEGESEKYSLTLKLFELGARALQNVDLIRSADIQMRELSRLTKETIHLGALDEDSIVYIHKIDSMYNLRMYSRIGRRNPLYSTAIGKVLLAWRDRDEVKQILEGVEYKRSTERTITSTEALLPVLDQVREQGYGEDNEEQEEGLRCIAVPVFDRFGVVIAGLSISFPTLRFSEERLQEYVAMLHTAARKISAQMGYHDYPF
[1]
  total protein half-life in vivo: 6.07 ± 1.7 h
[2]
  total protein half-life in vivo: 6.18 ± 1.6 h
[3]
  total protein half-life in vivo: 4.82 ± 0.33 h
[4]
  total protein half-life in vivo: 5.09 ± 0.25 h
[5]
  total protein half-life in vivo: 5.01 ± 0.17 h
[6]
  total protein half-life in vivo: 3.01 ± 0.13 h
[7]
  total protein half-life in vivo: 5.91 ± 0.28 h
[8]
  total protein half-life in vivo: 10.2 ± 0.83 h
[9]
  total protein half-life in vivo: 5.255 ± 0.017 h
[10]
  total protein half-life in vivo: 8.11 ± 0.13 h
[11]
  total protein half-life in vivo: 5.82 ± 0.61 h
[12]
  total protein half-life in vivo: 11.1 ± 0.7 h

## MQTQVLFEHPLNEKMRTWLRIEFLIQQLTVNLPIVDHAGALHFFRNVSELLDVFERGEVRTELLKELDRQQRKLQTWIGVPGVDQSRIEALIQQLKAAGSVLISAPRIGQFLREDRLIALVRQRLSIPGGCCSFDLPTLHIWLHLPQAQRDSQVETWIASLNPLTQALTMVLDLIRQSAPFRKQTSLNGFYQDNGGDADLLRLNLSLDSQLYPQISGHKSRFAIRFMPLDTENGQVPERLDFELACC
[1]
  total protein half-life in vivo: 6.32 ± 0.19 h
[2]
  total protein half-life in vivo: 6.18 ± 0.41 h
[3]
  total protein half-life in vivo: 6.06 ± 1.5 h
[4]
  total protein half-life in vivo: 5.0717 ± 0.004 h
[5]
  total protein half-life in vivo: 4.94 ± 0.2 h
[6]
  total protein half-life in vivo: 2.66 ± 0.025 h
[7]
  total protein half-life in vivo: 6.55 ± 0.5 h
[9]
  total protein half-life in vivo: 4.87 ± 1.7 h
[10]
  total protein half-life in vivo: 11.4 ± 6.5 h
[11]
  total protein half-life in vivo: 5.66 ± 0.3 h
[12]
  total protein half-life in vivo: 12.3 ± 1.5 h

## MLEEYRKHVAERAAEGIAPKPLDANQMAALVELLKNPPAGEEEFLLDLLTNRVPPGVDEAAYVKAGFLAAIAKGEAKSPLLTPEKAIELLGTMQGGYNIHPLIDALDDAKLAPIAAKALSHTLLMFDNFYDVEEKAKAGNEYAKQVMQSWADAEWFLNRPALAEKLTVTVFKVTGETNTDDLSPAPDAWSRPDIPLHALAMLKNAREGIEPDQPGVVGPIKQIEALQQKGFPLAYVGDVVGTGSSRKSATNSVLWFMGDDIPHVPNKRGGGLCLGGKIAPIFFNTMEDAGALPIEVDVSNLNMGDVIDVYPYKGEVRNHETGELLATFELKTDVLIDEVRAGGRIPLIIGRGLTTKAREALGLPHSDVFRQAKDVAESDRGFSLAQKMVGRACGVKGIRPGAYCEPKMTSVGSQDTTGPMTRDELKDLACLGFSADLVMQSFCHTAAYPKPVDVNTHHTLPDFIMNRGGVSLRPGDGVIHSWLNRMLLPDTVGTGGDSHTRFPIGISFPAGSGLVAFAAATGVMPLDMPESVLVRFKGKMQPGITLRDLVHAIPLYAIKQGLLTVEKKGKKNIFSGRILEIEGLPDLKVEQAFELTDASAERSAAGCTIKLNKEPIIEYLNSNIVLLKWMIAEGYGDRRTLERRIQGMEKWLANPELLEADADAEYAAVIDIDLADIKEPILCAPNDPDDARPLSAVQGEKIDEVFIGSCMTNIGHFRAAGKLLDAHKGQLPTRLWVAPPTRMDAAQLTEEGYYSVFGKSGARIEIPGCSLCMGNQARVADGATVVSTSTRNFPNRLGTGANVFLASAELAAVAALIGKLPTPEEYQTYVAQVDKTAVDTYRYLNFNQLSQYTEKADGVIFQTAV
[1]
  total protein half-life in vivo: 5.12 ± 0.25 h
[2]
  total protein half-life in vivo: 3.86 ± 0.1 h
[3]
  total protein half-life in vivo: 3.56 ± 0.021 h
[4]
  total protein half-life in vivo: 3.3 ± 0.063 h
[5]
  total protein half-life in vivo: 2.96 ± 0.046 h
[6]
  total protein half-life in vivo: 2.579 ± 0.021 h
[7]
  total protein half-life in vivo: 4.71 ± 0.057 h
[8]
  total protein half-life in vivo: 7.2 ± 0.21 h
[9]
  total protein half-life in vivo: 3.578 ± 0.02 h
[10]
  total protein half-life in vivo: 4.92 ± 0.14 h
[11]
  total protein half-life in vivo: 3.56 ± 0.094 h
[12]
  total protein half-life in vivo: 5.84 ± 0.098 h

## MNAPFTYSSPTLSVEALKHSIAYKLMFTIGKDPVVANKHEWLNATLFAVRDRLVERWLRSNRAQLSQETRQVYYLSMEFLIGRTLSNAMLSLGIYEDVQGALEAMGLNLEELIDEENDPGLGNGGLGRLAACFLDSLATLGLPGRGYGIRYDYGMFKQNIVNGSQKESPDYWLEYGNPWEFKRHNTRYKVRFGGRIQQEGKKTRWIETEEILGVAYDQIIPGYDTDATNTLRLWSAQASSEINLGKFNQGDYFAAVEDKNHSENVSRVLYPDDSTYSGRELRLRQEYFLVSSTIQDILSRHYQLHKTYDNLADKIAIHLNDTHPVLSIPEMMRLLIDEHQFSWDDAFEVCCQVFSYTNHTLMSEALETWPVDMLGKILPRHLQIIFEINDYFLKTLQEQYPNDTDLLGRASIIDESNGRRVRMAWLAVVVSHKVNGVSELHSNLMVQSLFADFAKIFPGRFTNVTNGVTPRRWLAVANPSLSAVLDEHLGRNWRTDLSLLNELQQHCDFPMVNHAVHQAKLENKKRLAEYIAQQLNVVVNPKALFDVQIKRIHEYKRQLMNVLHVITRYNRIKADPDAKWVPRVNIFGGKAASAYYMAKHIIHLINDVAKVINNDPQIGDKLKVVFIPNYSVSLAQLIIPAADLSEQISLAGTEASGTSNMKFALNGALTIGTLDGANVEMLDHVGADNIFIFGNTAEEVEELRRQGYKPREYYEKDEELHQVLTQIGSGVFSPEDPGRYRDLVDSLINFGDHYQVLADYRSYVDCQDKVDELYELQEEWTAKAMLNIANMGYFSSDRTIKEYADHIWHIDPVRL [P0AC86]
[1]
  total protein half-life in vivo: 6.11 ± 0.49 h
[2]
  total protein half-life in vivo: 5.45 ± 0.2 h
[3]
  total protein half-life in vivo: 5.71 ± 0.2 h
[4]
  total protein half-life in vivo: 5.65 ± 0.26 h
[5]
  total protein half-life in vivo: 5.54 ± 0.24 h
[6]
  total protein half-life in vivo: 3.18 ± 0.28 h
[7]
  total protein half-life in vivo: 5.27 ± 0.13 h
[8]
  total protein half-life in vivo: 10.1 ± 0.57 h
[9]
  total protein half-life in vivo: 5.448 ± 0.0098 h
[10]
  total protein half-life in vivo: 10.1 ± 0.65 h
[11]
  total protein half-life in vivo: 6.01 ± 0.15 h
[12]
  total protein half-life in vivo: 11.9 ± 1 h

## MKKAGLLFLVMIVIAVVAAGIGYWKLTGEESDTLRKIVLEECLPNQQQNQNPSPCAEVKPNAGYVVLKDLNGPLQYLLMPTYRINGTESPLLTDPSTPNFFWLAWQARDFMSKKYGQPVPDRAVSLAINSRTGRTQNHFHIHISCIRPDVRKQLDNNLANISSRWLPLPGGLRGHEYLARRVTESELVQRSPFMMLAEEVPEAREHMGRYGLAMVRQSDNSFVLLATQRNLLTLNRASAEEIQDHQCEILR
[1]
  total protein half-life in vivo: 6.38 ± 0.31 h
[2]
  total protein half-life in vivo: 6.726 ± 0.048 h
[3]
  total protein half-life in vivo: 6.364 ± 0.022 h
[5]
  total protein half-life in vivo: 6.59 ± 0.21 h
[6]
  total protein half-life in vivo: 3.17 ± 0.07 h
[7]
  total protein half-life in vivo: 7.09 ± 1 h
[8]
  total protein half-life in vivo: 12.8 ± 0.32 h
[9]
  total protein half-life in vivo: 6.45 ± 0.28 h
[11]
  total protein half-life in vivo: 6.13 ± 0.2 h
[12]
  total protein half-life in vivo: 13.6 ± 0.51 h

## MAHQLKLLKDDFFASDQQAVAVADRYPQDVFAEHTHDFCELVIVWRGNGLHVLNDRPYRITRGDLFYIHADDKHSYASVNDLVLQNIIYCPERLKLNLDWQGAIPGFNASAGQPHWRLGSMGMAQARQVIGQLEHESSQHVPFANEMAELLFGQLVMLLNRHRYTSDSLPPTSSETLLDKLITRLAASLKSPFALDKFCDEASCSERVLRQQFRQQTGMTINQYLRQVRVCHAQYLLQHSRLLISDISTECGFEDSNYFSVVFTRETGMTPSQWRHLNSQKD
[6]
  total protein half-life in vivo: 1.63 h

## MDQALLDGGYRCYTGEKIDVYFNTAICQHSGNCVRGNGKLFNLKRKPWIMPDEVDVATVVKVIDTCPSGALKYRHK [P0AF59]
[1]
  total protein half-life in vivo: 5.57 ± 0.28 h
[2]
  total protein half-life in vivo: 5.03 h
[3]
  total protein half-life in vivo: 5.21 ± 0.78 h
[4]
  total protein half-life in vivo: 6.02 ± 0.5 h
[5]
  total protein half-life in vivo: 4.29 ± 0.66 h
[6]
  total protein half-life in vivo: 1.83 h
[8]
  total protein half-life in vivo: 8.02 h
[9]
  total protein half-life in vivo: 5.6 ± 1 h
[10]
  total protein half-life in vivo: 8.71 ± 1.1 h
[12]
  total protein half-life in vivo: 10.5 ± 0.21 h

## MSAIAPGMILIAYLCGSISSAILVCRLCGLPDPRTSGSGNPGATNVLRIGGKGAAVAVLIFDVLKGMLPVWGAYELGVSPFWLGLIAIAACLGHIWPVFFGFKGGKGVATAFGAIAPIGWDLTGVMAGTWLLTVLLSGYSSLGAIVSALIAPFYVWWFKPQFTFPVSMLSCLILLRHHDNIQRLWRRQETKIWTKFKRKREKDPE
[1]
  total protein half-life in vivo: 6.82 h
[2]
  total protein half-life in vivo: 6.64 h
[3]
  total protein half-life in vivo: > 8 h
[4]
  total protein half-life in vivo: 7.06 h
[5]
  total protein half-life in vivo: 5.72 h
[7]
  total protein half-life in vivo: 6.29 h
[9]
  total protein half-life in vivo: 6.93 ± 0.78 h
[10]
  total protein half-life in vivo: 9.94 h
[11]
  total protein half-life in vivo: 6.01 ± 0.4 h
[12]
  total protein half-life in vivo: 11 h
